Test results reported in article doi:10.1101/2025.03.20.644192.
pKd: −log10 of the molar value.

Biological target: Chicken CapZ complex, full length α/β (chicken) (UniProt P13127)
Assay: ITC

In the case of “RavB, full length, untagged (RavB^WT) (natural protein)”, the pKd was 7.97.
